The target of this experiment is T1, CRF2-4/zcytor11 heterodimeric receptor on BaF3 cells (human, UniProt Q08334 20-325, limits assumed).
T1 sequence 1: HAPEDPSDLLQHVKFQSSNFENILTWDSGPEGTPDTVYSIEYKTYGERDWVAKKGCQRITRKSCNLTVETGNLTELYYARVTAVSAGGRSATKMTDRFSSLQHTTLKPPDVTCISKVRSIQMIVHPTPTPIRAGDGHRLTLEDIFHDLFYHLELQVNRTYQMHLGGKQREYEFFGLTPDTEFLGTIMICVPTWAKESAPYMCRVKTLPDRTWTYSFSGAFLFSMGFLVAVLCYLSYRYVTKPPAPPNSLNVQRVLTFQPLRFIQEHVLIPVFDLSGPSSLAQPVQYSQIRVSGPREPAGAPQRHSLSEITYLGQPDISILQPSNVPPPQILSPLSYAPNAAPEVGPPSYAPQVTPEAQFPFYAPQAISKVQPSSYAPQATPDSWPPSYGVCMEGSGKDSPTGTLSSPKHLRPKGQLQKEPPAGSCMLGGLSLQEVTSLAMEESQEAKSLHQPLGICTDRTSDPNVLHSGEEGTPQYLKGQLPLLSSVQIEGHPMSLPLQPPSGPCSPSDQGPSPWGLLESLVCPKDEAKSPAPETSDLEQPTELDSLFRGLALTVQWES
T1 sequence 2: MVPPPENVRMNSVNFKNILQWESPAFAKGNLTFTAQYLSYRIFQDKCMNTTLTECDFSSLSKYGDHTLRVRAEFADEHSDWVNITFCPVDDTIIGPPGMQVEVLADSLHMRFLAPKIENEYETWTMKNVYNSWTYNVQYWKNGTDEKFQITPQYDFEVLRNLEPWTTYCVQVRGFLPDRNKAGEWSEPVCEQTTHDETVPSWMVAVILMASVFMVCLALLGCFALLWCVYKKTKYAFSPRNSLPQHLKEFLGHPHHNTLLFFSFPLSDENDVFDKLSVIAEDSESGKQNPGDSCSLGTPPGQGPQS
Description: cell-based or functional assay.

The values below come from patent publication US20030170823A1 (ZymoGenetics, published 2003).

B1: ZCYTO18-CEE polypeptide purified from BHK 570 cells (ligand)
chain: APISSHCRLDKSNFQQPYITNRTFMLAKEASLADNNTDVRLIGEKLFHGVSMSERCYLMKQVLNFTLEEVLFPQSDRFQPYMQEVVPFLARLSNRLSTCHIEGDDLHIQRNVQKLKDTVKKLGESGEIKAIGELDLLFMSLRNACIEYMPME
Consider B1, for which the “proliferation of BaF3/CRF2-4/zcytor11 cells (Alamar Blue), fold induction at 0.06 ng/ml ZCYTO18-CEE” value was approximately 2 fold induction and the “proliferation of BaF3/CRF2-4/zcytor11 cells (Alamar Blue), fold over background at 50 ng/ml ZCYTO18-CEE” value is approximately 15 fold over background.
